Test results taken from PMC9934059, “Characterization of a glycan-binding complex of minor pilins completes the analysis of Streptococcus sanguinis type 4 pili subunits” (Proceedings of the National Academy of Sciences of the …, 2023).

Assays:
[1] = target: 6His–PilC (Streptococcus sanguinis 2908); test: ITC; MicroCal ITC200; average ± SD of three (mutants: 2 to 3) independent experiments
[2] = target: 6His–PilC (Streptococcus sanguinis 2908); test: SEC-MALS; ÄKTA Prime, S200 10/300 GL column, Wyatt MALS detector; 6His–PilA and 6His–PilC separately and after mixing equimolar amounts
[3] = target: 6His–PilA (Streptococcus sanguinis 2908); test: as above
6His–PilC = test: ITC; conditions: parent: est. 1.0; read off a plot
PilC [4] = target: T1, PilC (Streptococcus sanguinis, UniProt A0A0B7GRV8, K358A); test: ITC of mutant, KD ratio to WT (reduced affinity); assay type: binding
T1 construct: PilCΔpilin (lacking the pilin moiety), strain 2908
T1 sequence (A0A0B7GRV8 122-486 K358A): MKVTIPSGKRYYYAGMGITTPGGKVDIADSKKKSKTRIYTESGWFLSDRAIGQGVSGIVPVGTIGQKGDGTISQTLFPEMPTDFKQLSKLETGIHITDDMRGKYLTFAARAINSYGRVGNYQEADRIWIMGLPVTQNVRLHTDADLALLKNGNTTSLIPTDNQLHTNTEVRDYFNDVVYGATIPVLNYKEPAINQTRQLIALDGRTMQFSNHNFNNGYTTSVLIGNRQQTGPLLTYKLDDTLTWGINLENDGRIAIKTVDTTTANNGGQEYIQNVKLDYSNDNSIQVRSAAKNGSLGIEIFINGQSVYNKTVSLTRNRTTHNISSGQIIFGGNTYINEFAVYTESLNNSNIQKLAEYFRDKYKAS

PilC [5] = target: T2, PilC (Streptococcus sanguinis, UniProt A0A0B7GRV8); test: ITC (three independent experiments); supported by glycan microarray; assay type: binding
T2 construct: 6His–PilCΔpilin (lacking the pilin moiety; Ig-like and lectin modules), strain 2908

Question: Which Kd [1] does the source give for 6His–PilA (domain or fragment) here?
Answer: 23.8 nM

Question: And the stoichiometry N [2]?
Answer: 1

Question: And the stoichiometry N [3]?
Answer: 2

Question: How did the ratio to parent (6His–PilC) turn out when 6His–PilA A68S was run?
Answer: 0.87

Question: Which ratio to parent (6His–PilC) does the source give for 6His–PilA K85A here?
Answer: 0.98

Question: Which results are given for `CC(=O)N[C@H]1[C@H]([C@H](O)[C@H](O)CO)O[C@@](O[C@H]2[C@@H](O)[C@@H](CO)O[C@@H](O[C@H]3[C@H](O)[C@@H](O)C(O)O[C@@H]3CO)[C@@H]2O)(C(=O)O)C[C@@H]1O` (stereo partly drawn) [3′-SL, 3′-sialyllactose]?
Answer: % of WT binding (PilC [4]): 39.3 ± 1.4 % of WT binding; Kd (PilC [5]): 79.1 ± 0.36 µM

Question: With `CC(=O)N[C@H]1[C@H]([C@H](O)[C@H](O)CO)O[C@@](O[C@H]2[C@@H](O)[C@@H](CO)O[C@@H](O[C@H]3[C@H](O)[C@@H](NC(C)=O)C(O)O[C@@H]3CO)[C@@H]2O)(C(=O)O)C[C@@H]1O` (stereo partly drawn) [3′-SLN, 3′-sialyl-N-acetyllactosamine] as the molecule, how does the Kd (PilC [5]) read?
Answer: 144 ± 7.36 µM

Question: “PilA_(T87A) (from UniProt A0A0B7GNW3 33-164) (domain or fragment)” was tested. Which percent of the wild-type (WT) binding (KD ratio to the WT) [1] did it give?
Answer: 38.3%
